In the supplement of paper PMC10567573 one finds protein stability index data, which are given here for 94 variants.

Sequences and labels used below:
B1: ZNF511 (parent)
chain: HLYPADFRFDKPKKSRSPASAEAP
B2: SMOC2 (parent)
chain: DCAGSPQKPLCASDGRTFLSRCEF
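Also: lentivirally expressed fusions sorted by FACS into six bins by GFP to DsRed ratio, PSI derived from sequencing read proportions per bin multiplied by bin number.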

The first data set covers variants of B1. Kind of data set: protein stability index of a GFP-peptide fusion (GPS, HEK-293T) (PSI 1-6); higher = more stable. Conditions: c terminus: a fixed tail appended.
For HLCPADFRFDKPKKSRSPASAEAP [Y3C], the protein stability index stood at 3.55. Same read-out and setting: as for HLAPADFRFDKPKKSRSPASAEAP [Y3A], the figure is 4.14; as for HLEPADFRFDKPKKSRSPASAEAP [Y3E], 3.71; as for HLDPADFRFDKPKKSRSPASAEAP [Y3D], 4.58.

As for HLFPADFRFDKPKKSRSPASAEAP [Y3F], the protein stability index came out at 3.13. Same read-out and setting: as for HWYPADFRFDKPKKSRSPASAEAP [L2W], the figure is 2.87. Still for that read-out and setting: in the case of HMYPADFRFDKPKKSRSPASAEAP [L2M] it was 3.35; in that of HNYPADFRFDKPKKSRSPASAEAP [L2N], 4.38. Still for that read-out and setting: as for HGYPADFRFDKPKKSRSPASAEAP [L2G], the figure is 4.37. Regarding HVYPADFRFDKPKKSRSPASAEAP [L2V], the protein stability index was 2.69. On to HTYPADFRFDKPKKSRSPASAEAP [L2T], for which the protein stability index worked out at 4.64. The same measure, in the same setting: as for HCYPADFRFDKPKKSRSPASAEAP [L2C], the figure is 3.53; as for HHYPADFRFDKPKKSRSPASAEAP [L2H], 3.58; as for HFYPADFRFDKPKKSRSPASAEAP [L2F], 4.37. Still for that read-out and setting: in the case of HDYPADFRFDKPKKSRSPASAEAP [L2D] it was 4.91.

Turning to HYYPADFRFDKPKKSRSPASAEAP [L2Y], the protein stability index was 3.84. Consider HAYPADFRFDKPKKSRSPASAEAP [L2A], for which the protein stability index is 4.37. Same read-out and setting: as for HEYPADFRFDKPKKSRSPASAEAP [L2E], the figure is 4.73. Still for that read-out and setting: as for HIYPADFRFDKPKKSRSPASAEAP [L2I], the figure is 1.9; as for HKYPADFRFDKPKKSRSPASAEAP [L2K], 4.6.

With HPYPADFRFDKPKKSRSPASAEAP [L2P], the protein stability index worked out at 4.52. On the same count and under the same terms, in the case of HQYPADFRFDKPKKSRSPASAEAP [L2Q] it was 3.59; in that of HRYPADFRFDKPKKSRSPASAEAP [L2R], 4.1; in that of HSYPADFRFDKPKKSRSPASAEAP [L2S], 4.63. Consider RLYPADFRFDKPKKSRSPASAEAP [H1R], for which the protein stability index was 3.57. Turning to WLYPADFRFDKPKKSRSPASAEAP [H1W], the protein stability index came to 2.69. Same read-out and setting: as for KLYPADFRFDKPKKSRSPASAEAP [H1K], the figure is 4.05; as for NLYPADFRFDKPKKSRSPASAEAP [H1N], 4.2. On the same count and under the same terms, in the case of SLYPADFRFDKPKKSRSPASAEAP [H1S] it was 4.48. Consider CLYPADFRFDKPKKSRSPASAEAP [H1C], for which the protein stability index is 3.59.

In the case of ILYPADFRFDKPKKSRSPASAEAP [H1I], the protein stability index is 2.85. The same measure, in the same setting: as for QLYPADFRFDKPKKSRSPASAEAP [H1Q], the figure is 3.65; as for DLYPADFRFDKPKKSRSPASAEAP [H1D], 4.13. On the same count and under the same terms, as for TLYPADFRFDKPKKSRSPASAEAP [H1T], the figure is 4.19; as for GLYPADFRFDKPKKSRSPASAEAP [H1G], 4.7.

As for FLYPADFRFDKPKKSRSPASAEAP [H1F], the protein stability index worked out at 4.32. Consider LLYPADFRFDKPKKSRSPASAEAP [H1L], for which the protein stability index amounted to 3.94. The same measure, in the same setting: in the case of ALYPADFRFDKPKKSRSPASAEAP [H1A] it was 3.95; in that of YLYPADFRFDKPKKSRSPASAEAP [H1Y], 2.08.

MLYPADFRFDKPKKSRSPASAEAP [H1M]: the protein stability index amounted to 4.09. In the case of PLYPADFRFDKPKKSRSPASAEAP [H1P], the protein stability index is 4.58. Same read-out and setting: as for ELYPADFRFDKPKKSRSPASAEAP [H1E], the figure is 3.81; as for VLYPADFRFDKPKKSRSPASAEAP [H1V], 3.67.

In the next data set the parent is B2. The description is as above. Conditions: c terminus: a fixed tail appended.
Consider DCAGSPQKPLCASDGRTFLSRCEN [F24N], for which the protein stability index was determined as 3.93.

For the variant DCAGSPQKPLCASDGRTFLSRCEI [F24I], the protein stability index is 3.16.

On to DCAGSPQKPLCASDGRTFLSRCER [F24R], for which the protein stability index is 2.57. Regarding DCAGSPQKPLCASDGRTFLSRCET [F24T], the protein stability index came out at 2.61.

On to DCAGSPQKPLCASDGRTFLSRCEW [F24W], for which the protein stability index stood at 2.02. Still for that read-out and setting: in the case of DCAGSPQKPLCASDGRTFLSRCEM [F24M] it was 2.72; in that of DCAGSPQKPLCASDGRTFLSRCES [F24S], 3.46; in that of DCAGSPQKPLCASDGRTFLSRCEH [F24H], 3.79. Still for that read-out and setting: as for DCAGSPQKPLCASDGRTFLSRCEK [F24K], the figure is 2.97; as for DCAGSPQKPLCASDGRTFLSRCEQ [F24Q], 3.6; as for DCAGSPQKPLCASDGRTFLSRCEY [F24Y], 2.67. As for DCAGSPQKPLCASDGRTFLSRCED [F24D], the protein stability index stood at 4.38. The same measure, in the same setting: as for DCAGSPQKPLCASDGRTFLSRCEA [F24A], the figure is 3.45; as for DCAGSPQKPLCASDGRTFLSRCEV [F24V], 3.32; as for DCAGSPQKPLCASDGRTFLSRCEL [F24L], 3.44. The same measure, in the same setting: in the case of DCAGSPQKPLCASDGRTFLSRCEE [F24E] it was 4.41; in that of DCAGSPQKPLCASDGRTFLSRCEP [F24P], 2.43; in that of DCAGSPQKPLCASDGRTFTSRCEF [L19T], 2.59. Same read-out and setting: in the case of DCAGSPQKPLCASDGRTFVSRCEF [L19V] it was 1.88; in that of DCAGSPQKPLCASDGRTFASRCEF [L19A], 2.44; in that of DCAGSPQKPLCASDGRTFGSRCEF [L19G], 3.07. With DCAGSPQKPLCASDGRTFESRCEF [L19E], the protein stability index worked out at 3.51. The same measure, in the same setting: in the case of DCAGSPQKPLCASDGRTFNSRCEF [L19N] it was 4.01. Same read-out and setting: as for DCAGSPQKPLCASDGRTFHSRCEF [L19H], the figure is 3.82; as for DCAGSPQKPLCASDGRTFISRCEF [L19I], 2.07; as for DCAGSPQKPLCASDGRTFQSRCEF [L19Q], 2.49.

For the variant DCAGSPQKPLCASDGRTFRSRCEF [L19R], the protein stability index came to 3.35. On the same count and under the same terms, in the case of DCAGSPQKPLCASDGRTFFSRCEF [L19F] it was 4.33; in that of DCAGSPQKPLCASDGRTFCSRCEF [L19C], 3.85. Consider DCAGSPQKPLCASDGRTFMSRCEF [L19M], for which the protein stability index stood at 2.99. On the same count and under the same terms, as for DCAGSPQKPLCASDGRTFSSRCEF [L19S], the figure is 3.06; as for DCAGSPQKPLCASDGRTFYSRCEF [L19Y], 2.49; as for DCAGSPQKPLCASDGRTFWSRCEF [L19W], 2.34. On the same count and under the same terms, as for DCAGSPQKPLCASDGRTFPSRCEF [L19P], the figure is 3.97; as for DCAGSPQKPLCASDGRTFKSRCEF [L19K], 3.53. In the case of DCAGSPQKPLCASDGRTFDSRCEF [L19D], the protein stability index turned out to be 4.93. For DCAGSPQKPLCASDGRTFLSRWEF [C22W], the protein stability index amounted to 2.93. Same read-out and setting: as for DCAGSPQKPLCASDGRTFLSRGEF [C22G], the figure is 3.96; as for DCAGSPQKPLCASDGRTFLSRKEF [C22K], 4.42. Still for that read-out and setting: as for DCAGSPQKPLCASDGRTFLSRLEF [C22L], the figure is 2.5.

On to DCAGSPQKPLCASDGRTFLSRPEF [C22P], for which the protein stability index was determined as 3.95. On the same count and under the same terms, in the case of DCAGSPQKPLCASDGRTFLSRHEF [C22H] it was 3.68; in that of DCAGSPQKPLCASDGRTFLSRNEF [C22N], 4.36; in that of DCAGSPQKPLCASDGRTFLSRTEF [C22T], 3.29.

DCAGSPQKPLCASDGRTFLSRAEF [C22A]: the protein stability index amounted to 3.86. Same read-out and setting: as for DCAGSPQKPLCASDGRTFLSRYEF [C22Y], the figure is 3.67. Same read-out and setting: as for DCAGSPQKPLCASDGRTFLSRDEF [C22D], the figure is 4.81. Same read-out and setting: in the case of DCAGSPQKPLCASDGRTFLSRFEF [C22F] it was 2.5; in that of DCAGSPQKPLCASDGRTFLSRSEF [C22S], 3.49. On to DCAGSPQKPLCASDGRTFLSRMEF [C22M], for which the protein stability index worked out at 2.31. The same measure, in the same setting: in the case of DCAGSPQKPLCASDGRTFLSREEF [C22E] it was 4.38.
